Data as given in the supplement of paper PMC9732359.
± gives the uncertainty stated by the source.

Assay: protein stability index of a GFP-peptide fusion (yeast GPS) (PSI 1-4); higher = more stable; sorted into four equal gates, so the index is relative within each strain
How it was run: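 Plasmids isolated from each sorting gate were PCR-amplified and Illumina-sequenced, and barcodes assigned the reads to strains. The gates, four of equal size, were set by GFP/Cherry fluorescence ratio on mid-log cultures in leucine-free medium. These cultures were yeast carrying a pooled library of tiled 17-residue yeast protein peptides fused downstream of GFP on a plasmid that also expresses Cherry. The protein stability index is the sum of every gate's read frequency times its gate number.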

| Sequence | protein stability index (doa10∆) | protein stability index (pdr5∆) | protein stability index (san1∆) | protein stability index (ubr1∆) |
| --- | --- | --- | --- | --- |
| LFKGTGFNSWEGLFWEK [PRP8] | 2.44 ± 0.12 | 2.42 ± 0.13 | 3.36 ± 0.13 | 1.64 ± 0.04 |
| QEYAIEMKIGSIESKLE [SMC1] | 2.84 ± 0.091 | 3.34 ± 0.12 | 2.74 ± 0.1 | 2.94 ± 0.093 |
| LIYHLKDCAEVDSRTKI [IRR1] | 3.23 ± 0.086 | 3.18 ± 0.072 | 3.02 ± 0.058 | 3.23 ± 0.092 |
| NSSEIQSAIRPAGQATQ [RPL4A] | 2.63 ± 0.085 | 2.85 ± 0.094 | 2.77 ± 0.039 | 2.57 ± 0.062 |
| KTTRLLLIIRSLKNTDA [YJL039C/NUP192] | 1.51 ± 0.056 | 1.31 ± 0.053 | 1.19 ± 0.12 | 1.11 ± 0.059 |
| VHPRKSYKMNSSAADIT [PRP8] | 2.77 ± 0.079 | 2.88 ± 0.075 | 2.88 ± 0.053 | 2.74 ± 0.058 |
| ILDAICFVLGIASMSTV [SMC2] | 1.45 ± 0.046 | 1.77 ± 0.054 | 1.78 ± 0.067 | 1.67 ± 0.06 |
| PFTNEAHMWPRVHDQPL [POP3] | – | 1.36 ± 0.24 | – | – |
| QRTCLMTVTFLILAGQV [YCS4] | 1.19 ± 0.052 | 1.36 ± 0.05 | 1.27 ± 0.099 | 1.43 ± 0.043 |
| KLLGVDMQSSVDTGLQP [YLR018C/POM34] | 3.17 ± 0.077 | 3.12 ± 0.067 | 3.1 ± 0.062 | 3.14 ± 0.053 |
| NVFVILMDKCLPKVRIR [DIS3] | 2.96 ± 0.088 | 1.87 ± 0.05 | 1.87 ± 0.07 | 1.65 ± 0.047 |
| LPTPTPTEMEPDLDTEC [SWI1] | 2.92 ± 0.05 | 3.09 ± 0.05 | 2.77 ± 0.048 | 2.94 ± 0.032 |
| EETDEVSSESSDEAIIP [SIR3] | 2.93 ± 0.068 | 2.52 ± 0.056 | 2.73 ± 0.065 | 2.82 ± 0.043 |
| FTNPSIVKVFHGAFMDI [RRP6] | 1.16 ± 0.084 | 1.57 ± 0.062 | 1.63 ± 0.11 | 1.38 ± 0.049 |
| GYMQKPVYATIGVETGS [PRP28] | 1.47 ± 0.25 | 2.23 ± 0.21 | 1.68 ± 0.19 | 1.77 ± 0.19 |
| VNGPNVHPGANYLLKRN [RPO31] | 3.29 ± 0.056 | 3.21 ± 0.068 | 3.26 ± 0.044 | 3.21 ± 0.037 |
| AKNIISNVLDGNKNQFE [LRP1] | 2.46 ± 0.056 | 2.77 ± 0.049 | 2.92 ± 0.045 | 3.23 ± 0.049 |
| KLSKSATESIKNRRRIH [SMC1] | – | – | – | 2.62 ± 0.25 |
| RNKSAANNDINSLLSNF [YDL088C/ASM4] | 2.94 ± 0.15 | 3.07 ± 0.095 | 2.99 ± 0.091 | 3.02 ± 0.056 |
| SLDTSASTINGASIIQV [YML103C/NUP188] | 1.19 ± 0.081 | 1.44 ± 0.086 | 1.29 ± 0.12 | 1.14 ± 0.093 |
| LENFKSYAGKQVVGPFH [SMC4] | 3.04 ± 0.076 | 3.2 ± 0.19 | 2.98 ± 0.11 | 2.98 ± 0.1 |
| ALQILNSGIIPGNRNAD [FAS2] | 2.38 ± 0.075 | 1.9 ± 0.068 | 2.72 ± 0.1 | 2.8 ± 0.052 |
| ASKSKKKFNMGKEFEAR [RPC53] | 3.33 ± 0.085 | 3.14 ± 0.12 | 3.27 ± 0.073 | 3.4 ± 0.081 |
| NNSNNNNIIRIQQLISQ [SNF11] | 2.25 ± 0.06 | 2.39 ± 0.075 | 2.54 ± 0.08 | 2.69 ± 0.046 |
| ETATLIMNELYRMKGGR [SMC3] | 3.07 ± 0.088 | 3.21 ± 0.12 | 2.82 ± 0.1 | 3.26 ± 0.084 |
| ADIENSTSGDPSEFHCL [SSN2] | 3.15 ± 0.18 | 3.31 ± 0.26 | 3.21 ± 0.12 | 3.29 ± 0.12 |
| QNRPYNHPELQGITRNV [RPC17] | 2.06 ± 0.046 | 2.38 ± 0.078 | 2.03 ± 0.087 | 2.17 ± 0.049 |

| Sequence | protein stability index (doa10∆) | protein stability index (pdr5∆) | protein stability index (san1∆) | protein stability index (ubr1∆) |
| --- | --- | --- | --- | --- |
| VKEYQLRDRNFSATGNF [RPL11A] | 3.29 ± 0.097 | 3.27 ± 0.1 | 2.85 ± 0.28 | 3.22 ± 0.089 |
| YYSLNIDYHKTAKETKM [RPN11] | 2.75 ± 0.067 | 2.77 ± 0.072 | 2.87 ± 0.053 | 2.74 ± 0.06 |
| WGGFPLDISVFLLEKAG [TAF14] | 3.2 ± 0.11 | 3.38 ± 0.067 | 3.26 ± 0.06 | 3.15 ± 0.075 |
| SSNPNSSLHSPTSDEPV [SRB4] | 3.09 ± 0.13 | 2.99 ± 0.079 | 2.99 ± 0.063 | 3.15 ± 0.058 |
| GNGEGLGGDSDEANIEI [BRN1] | 3.11 ± 0.17 | 3.48 ± 0.27 | 2.95 ± 0.17 | – |
| LRLKLFLYEILSSLKSF [SRB8] | 1.53 ± 0.063 | 2.29 ± 0.082 | 1.81 ± 0.082 | 2.11 ± 0.085 |
| NGWEKYLHNVELGEKKN [ISW2] | 1.7 ± 0.087 | 1.8 ± 0.14 | 1.65 ± 0.16 | 2.56 ± 0.092 |
| EIGITQQRIVSAYEASM [RRP4] | 3.04 ± 0.098 | 2.98 ± 0.081 | 2.75 ± 0.12 | 2.85 ± 0.065 |
| KKNIQKAKSNQTQREKA [IRR1] | 2.59 ± 0.099 | 2.65 ± 0.11 | 2.77 ± 0.11 | 2.73 ± 0.066 |
| VEITFGKEFGDVSVKMG [RRP45] | 1.38 ± 0.073 | 1.68 ± 0.083 | 1.32 ± 0.19 | 1.79 ± 0.12 |
| SVAVHFQYVIDESSGTS [SMC4] | 1.99 ± 0.081 | 1.6 ± 0.074 | 2.01 ± 0.074 | 1.77 ± 0.055 |
| LEKISSSNKDLEDEKMK [SMC4] | 3.31 ± 0.079 | 3.15 ± 0.093 | 3.23 ± 0.038 | 3.26 ± 0.077 |
| AMSETLSKVSLLTPDIG [PRE8] | 3.08 ± 0.11 | 3.19 ± 0.12 | 3.04 ± 0.13 | 3.35 ± 0.23 |
| ITHQLNNKFANKIIPNV [RPC25] | 2.72 ± 0.069 | 3.03 ± 0.08 | 2.93 ± 0.053 | 3.01 ± 0.082 |
| RRFKNGFQTGSASKASA [RPL37A] | 2.99 ± 0.053 | 2.98 ± 0.056 | 3.06 ± 0.067 | 2.88 ± 0.043 |
| LKAQITSLKCLVNRKPI [SNF2] | 2.05 ± 0.045 | 1.77 ± 0.038 | 1.6 ± 0.062 | 1.61 ± 0.032 |
| INKMVGNRYLEKRLNLR [RPL21A] | 2.65 ± 0.085 | 2.8 ± 0.077 | 2.92 ± 0.092 | 3 ± 0.065 |
| LAAIVSTVIEEFTLFMD [YGL172W/NUP49] | 2.21 ± 0.052 | 2.56 ± 0.061 | 2.1 ± 0.074 | 2.42 ± 0.055 |
| GIKATNGVVIATEKKSS [PRE8] | 2.91 ± 0.18 | 2.89 ± 0.17 | 2.52 ± 0.26 | 3.09 ± 0.11 |
| SMNKELIAIVSKLLQTT [NUT1] | 1.88 ± 0.057 | 1.79 ± 0.096 | 2.28 ± 0.14 | 1.4 ± 0.083 |
| SNASQMGNTGSGGYDNA [RPB3] | 3.43 ± 0.27 | 3.32 ± 0.17 | 3.52 ± 0.2 | 2.5 ± 0.15 |
| KLPLLNESLIPLINLAL [YML103C/NUP188] | 1.69 ± 0.061 | 2.16 ± 0.068 | 1.73 ± 0.079 | 1.98 ± 0.054 |
| HNMKAYYKKFLIEPLPT [BRR2] | 1.26 ± 0.055 | 1.58 ± 0.07 | 1.18 ± 0.16 | 1.44 ± 0.084 |
| GTNAMLPSPESLKTKLN [SNF5] | 1.88 ± 0.037 | 1.97 ± 0.035 | 2.19 ± 0.046 | 2.12 ± 0.034 |
| LTNDTFEKKLSIIKAKL [YML103C/NUP188] | 2.8 ± 0.11 | 2.99 ± 0.23 | 2.43 ± 0.21 | 3.3 ± 0.19 |
| NNTNNNNTNTGASGVDD [SWI1] | 2.75 ± 0.073 | 2.95 ± 0.065 | 3.05 ± 0.072 | 3.3 ± 0.048 |
